Where “and” joins values, the source holds several entries; their conditions need not be identical. Equal entries are not always repeated.
How the values were obtained:
[1] = target: T1, human CD39 (ectonucleoside triphosphate diphosphohydrolase-1) (human, UniProt P49961 1-510); assay: flow cytometry; HCC1739BL cells
T1 chain: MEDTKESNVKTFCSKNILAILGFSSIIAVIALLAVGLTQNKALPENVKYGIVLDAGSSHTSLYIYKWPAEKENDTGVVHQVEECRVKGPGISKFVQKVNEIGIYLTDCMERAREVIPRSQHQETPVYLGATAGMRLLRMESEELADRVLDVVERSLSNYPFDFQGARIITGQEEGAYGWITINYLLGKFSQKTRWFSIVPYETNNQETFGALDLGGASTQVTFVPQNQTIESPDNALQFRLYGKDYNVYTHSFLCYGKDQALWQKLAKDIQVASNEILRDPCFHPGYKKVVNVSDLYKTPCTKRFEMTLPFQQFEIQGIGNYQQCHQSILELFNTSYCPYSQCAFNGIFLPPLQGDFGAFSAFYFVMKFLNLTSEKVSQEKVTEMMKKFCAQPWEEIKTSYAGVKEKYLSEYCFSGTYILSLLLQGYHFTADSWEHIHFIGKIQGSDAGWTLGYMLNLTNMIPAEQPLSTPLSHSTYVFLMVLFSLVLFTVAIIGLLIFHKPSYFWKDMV

[2] = target: T2, human CD39 (ectonucleoside triphosphate diphosphohydrolase-1) (human, UniProt P49961 1-510); assay: flow cytometry, serial dilution on CHO-hCD39 cells, anti-human IgG Fc AF488 secondary
T2 construct: whole, on cells; also called hCD39; ENTPD1
T2 sequence (looked up): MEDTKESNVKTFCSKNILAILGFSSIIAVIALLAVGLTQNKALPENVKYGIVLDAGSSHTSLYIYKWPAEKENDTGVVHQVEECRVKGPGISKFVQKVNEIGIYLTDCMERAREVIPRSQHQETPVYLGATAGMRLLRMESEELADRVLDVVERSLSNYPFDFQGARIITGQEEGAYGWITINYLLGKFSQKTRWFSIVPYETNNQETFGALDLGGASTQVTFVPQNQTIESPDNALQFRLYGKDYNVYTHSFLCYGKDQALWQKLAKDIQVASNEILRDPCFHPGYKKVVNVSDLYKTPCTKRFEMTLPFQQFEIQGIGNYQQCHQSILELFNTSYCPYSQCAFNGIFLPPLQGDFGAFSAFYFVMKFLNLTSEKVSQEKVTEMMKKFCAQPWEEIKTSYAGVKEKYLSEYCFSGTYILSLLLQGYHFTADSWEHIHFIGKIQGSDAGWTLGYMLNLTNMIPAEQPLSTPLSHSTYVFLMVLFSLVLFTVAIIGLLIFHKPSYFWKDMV
Experimental: FIG. 10. […] Ig39-21 WT, Ig39-21 AF or NP501-BK (an optimized version of Ig39-21 by production using stably transfected cells) were serially diluted as indicated and incubated with CHO-hCD39 cells for 30 minutes at 4° C. Cells were then stained with secondary antibody (anti-human IgG (Fc specific), Alexa Fluor® 488) for 30 minutes at 4° C. and analyzed by flow cytometry. Human IgG1 isotype control antibody (KLH-hIgG1) was used in parallel.

[3] = target: T2, human CD39 (ectonucleoside triphosphate …); assay: cell-based or functional assay
[4] = target: T2, human CD39 (ectonucleoside triphosphate …); assay: flow cytometry, serial dilution on HCC1739BL cells, anti-human IgG Fc AF488 secondary
Experimental: FIG. 11. […] Ig39-21 WT, Ig39-21 AF or NP501-BK were serially diluted as indicated and incubated with HCC1739BL cells for 30 minutes at 4° C. Afterwards, cells were stained with secondary antibody (anti-human IgG (Fc specific), Alexa Fluor® 488) for 30 minutes at 4° C. and analyzed by flow cytometry. Human IgG1 isotype control antibody (KLH-hIgG1) was used in parallel.

[5] = target: T2, human CD39 (ectonucleoside triphosphate …); assay: flow cytometry, serial dilution on HCC1739BL cells, 30 min at 4 °C
Experimental: FIG. 1. Affinity of Ig39-21 measured by flow cytometry using human CD39hi human B lymphoblastoid (HCC1739BL) cells. Our fully human anti-CD39 antibody clone Ig39-21 produced by transient transfection was serially diluted as indicated and incubated with HCC1739BL cells for 30 minutes at 4° C., followed by flow cytometric analysis.

Binder	Kd [1]	Kd [2]	ADCC Luc-reporter assay (Jurkat hCD16a-158V effector cells), HCC1739BL target cells, EC50 [3]	ADCC Luc-reporter assay, HCC1739BL target cells, EC50 [3]	CDC assay (10% Normal Human Serum), Raji-hCD39hi target cells, EC50 [3]	Kd [4]	Kd [5]
Human/Rabbit chimeric clone 8C11 (antibody, V domains shown) VH: QSVEESGGRLVTPGTHLTLTCTVSGFSLSKSIISWVRQAPGKGLEYIGIIGSSGSTYYANWAKGRFTISKTSSTTVDLRMTSLTPEDTATYFCARGLLYSGNKSWGPGTLVTVSS VL: AIDMTQTPSSVSAAVGGTVTINCQSSQSVLLNNQLSWFQQKPGQPPKLLIYDASTLESGVPSRFTGSGSGTQFTLTISDLECDDAATYYCLGGYSGNLYAFGGGTEVLVK	1.68 nM						
Human/Rabbit chimeric clone 8D8 (antibody, V domains shown) VH: QSVEESGGRLVTPGTPLTLTCTVSGFSLSSYAISWVRQAPGKGLEYIAIINSYGTTYYASWAKGRVTISKTSSTVDLKISSPTTEDTATYFCARGDSYGSGVGLGLWGPGTLVTVSS VL: AYDMTQTPASVEVAVGGTVTIKCQASQNIYSNLAWYQQKPGQRPKLLIYRASSLASGVPSRFSGSGSGTEFTLTISGVQCDDAATYYCQQGFSSNNVDNTFGGGTEVVVK	1.1 nM						
Human/Rabbit chimeric clone 9C10 (antibody, V domains shown) VH: QSVEESGGRLVTPGTPLTLTCTVSGFSLSSYAMSWVRQAPGKGLEYIGIISSSGSTYYASWAKGRFTISKTSTTVDLKISSPTTEDTATYFCARDRVIYSIGPYYFNLWGPGTLVTVSS VL: AYDMTQTPSSVSATVGGTVTINCQASEIIYSNLAWYQQKPGQPPKLLIYGASTLASGVPSRFKGSGSGTEYTLTISDLQCDDAATYYCQQSFSSNNVGNIFGGGTEVVVK	2.95 nM						
Ig39-21 WT (antibody, human IgG1, kappa, V domains shown, also called fully human anti-CD39 antibody clone Ig39-21) VH: EVQLVESGGGVVRPGGSLRLSCAASGFTFSSYAMHWVRQAPGKGLEWVAVISYDVSNKYYADSVKGRFTISRDNSKNTLYLQMNSLRAEDTAVYYCARSYYYYYGMDVWGQGTTVTVSS VL: DVVMTQSPSSLSASVGDRVTITCRASQSISRYLAWYQQKPGQAPRLLIYDASNRATGIPVRFSGSGSGTDFTLTISRLEPEDFAVYYCQQFGRSPRTFGQGTRLEIKR		0.52 nM	0.014 µg/mL	14 ng/mL and 20 ng/mL	0.38 µg/mL	0.29 nM	0.412 nM
NP501-BK (antibody, V domains shown, decreased fucosylation by optimized production process, 'An optimized version of Ig39-21 by production using stably transfected cells' (CHO); also called Optimized Ig39-21) VH: EVQLVESGGGVVRPGGSLRLSCAASGFTFSSYAMHWVRQAPGKGLEWVAVISYDVSNKYYADSVKGRFTISRDNSKNTLYLQMNSLRAEDTAVYYCARSYYYYYGMDVWGQGTTVTVSS VL: DVVMTQSPSSLSASVGDRVTITCRASQSISRYLAWYQQKPGQAPRLLIYDASNRATGIPVRFSGSGSGTDFTLTISRLEPEDFAVYYCQQFGRSPRTFGQGTRLEIKR		0.48 nM		1.7 ng/mL	0.31 µg/mL	0.16 nM	
Ig39-21 AF (antibody, human IgG1, kappa, V domains shown, afucosylated glycan (produced in presence of fucosylation inhibitor 2-Deoxy-2-fluoro-L-fucose), also called afucosylated Ig39-21) VH: EVQLVESGGGVVRPGGSLRLSCAASGFTFSSYAMHWVRQAPGKGLEWVAVISYDVSNKYYADSVKGRFTISRDNSKNTLYLQMNSLRAEDTAVYYCARSYYYYYGMDVWGQGTTVTVSS VL: DVVMTQSPSSLSASVGDRVTITCRASQSISRYLAWYQQKPGQAPRLLIYDASNRATGIPVRFSGSGSGTDFTLTISRLEPEDFAVYYCQQFGRSPRTFGQGTRLEIKR		0.51 nM		0.86 ng/mL and 0.8 ng/mL	0.25 µg/mL	0.35 nM	
Human/Rabbit chimeric clone 9B6 (antibody, human IgG1, V domains shown) VH: QSVKEAGGRLVTPGGSLTLTCTVSGFSLSAYGISWVRQAPGKGLEWIGIIYSSGRTYYANWAKGRFTISKTSSTTVDLKMTSLTTEDTAAYFCARSRAGISSGDGFDSWGPGTLVTVSS VL: ALVMTQTPSSVSAAVGGTVTINCQASQNIYSNLAWYQQKPGQRPQLLIYRASTLASGVPSRFKGSASGTEYTLTISGVQCDDAATYYCQQGFDSSNIDNTFGGGTEVVVT				22 ng/mL			
